Assay results published in doi:10.1101/2021.03.11.435010 (bioRxiv, 2021).
Blank lines part the entries; values can stand above or below the binder they belong to.

B3: MED20 (natural protein)
chain: MGVTCVSQMPVAEGKSVQQTVELLTRKLEMLGAEKQGTFCVDCETYHTAASTLGSQGQTGKLMYVMHNSEYPLSCFALFENGPCLIADTNFDVLMVKLKGFFQSAKASKIETRGTRYQYCDFLVKVGTVTMGPSARGISVEVEYGPCVVASDCWSLLLEFLQSFLGSHTPGAPAVFGNRHDAVYGPADTMVQYMELFNKIRKQQQVPVAGIR
B5: MED27 (natural protein)
chain: MADVINVSVNLEAFSQAISAIQALRSSVSRVFDCLKDGMRNKETLEGREKAFIAHFQDNLHSVNRDLNELERLSNLVGKPSENHPLHNSGLLSLDPVQDKTPLYSQLLQAYKWSNKLQYHAGLASGLLNQQSLKRSANQMGVSAKRRPKAQPTTLVLPPQYVDDVISRIDRMFPEMSIHLSRPNGTSAMLLVTLGKVLKVIVVMRSLFIDRTIVKGYNENVYTEDGKLDIWSKSNYQVFQKVTDHATTALLHYQLPQMPDVVVRSFMTWLRSYIKLFQAPCQRCGKFLQDGLPPTWRDFRTLEAFHDTCRQ
B7: MED28 (natural protein)
chain: MAAPLGGMFSGQPPGPPQAPPGLPGQASLLQAAPGAPRPSSSTLVDELESSFEACFASLVSQDYVNGTDQEEIRTGVDQCIQKFLDIARQTECFFLQKRLQLSVQKPEQVIKEDVSELRNELQRKDALVQKHLTKLRHWQQVLEDINVQHKKPADIPQGSLAYLEQASANIPAPLKPT

Legend:
Experiment in all cases: cryo-EM structure
MED8 = molecular target: T1, MED8 (human, UniProt Q96G25 1-268)
T1 sequence: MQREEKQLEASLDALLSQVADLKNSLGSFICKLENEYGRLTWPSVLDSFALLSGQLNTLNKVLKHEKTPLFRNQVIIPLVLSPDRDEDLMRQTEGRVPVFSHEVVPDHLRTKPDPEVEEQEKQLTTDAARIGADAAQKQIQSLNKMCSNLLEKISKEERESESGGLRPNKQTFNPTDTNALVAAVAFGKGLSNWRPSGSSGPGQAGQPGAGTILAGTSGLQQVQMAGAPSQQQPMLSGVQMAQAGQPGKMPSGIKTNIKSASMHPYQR

MED30 = molecular target: T2, MED30 (human, UniProt Q96HR3 1-178)
T2 sequence: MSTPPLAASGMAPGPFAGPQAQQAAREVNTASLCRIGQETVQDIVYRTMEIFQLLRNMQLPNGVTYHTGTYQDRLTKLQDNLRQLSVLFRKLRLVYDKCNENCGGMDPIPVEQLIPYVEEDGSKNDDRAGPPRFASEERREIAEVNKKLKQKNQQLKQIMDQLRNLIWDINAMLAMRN

MED28 = molecular target: B7
MED27 = molecular target: B5
MED4 = molecular target: T3, MED4 (human, UniProt Q9NPJ6 1-270)
T3 sequence: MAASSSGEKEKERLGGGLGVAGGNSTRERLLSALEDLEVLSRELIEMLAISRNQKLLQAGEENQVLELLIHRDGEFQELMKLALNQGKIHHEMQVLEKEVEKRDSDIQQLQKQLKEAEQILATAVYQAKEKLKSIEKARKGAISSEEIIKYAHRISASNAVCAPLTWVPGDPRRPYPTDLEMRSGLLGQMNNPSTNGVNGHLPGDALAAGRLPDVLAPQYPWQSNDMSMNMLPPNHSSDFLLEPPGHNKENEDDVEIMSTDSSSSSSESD

MED7 = molecular target: T4, MED7 (human, UniProt O43513 1-233)
T4 sequence: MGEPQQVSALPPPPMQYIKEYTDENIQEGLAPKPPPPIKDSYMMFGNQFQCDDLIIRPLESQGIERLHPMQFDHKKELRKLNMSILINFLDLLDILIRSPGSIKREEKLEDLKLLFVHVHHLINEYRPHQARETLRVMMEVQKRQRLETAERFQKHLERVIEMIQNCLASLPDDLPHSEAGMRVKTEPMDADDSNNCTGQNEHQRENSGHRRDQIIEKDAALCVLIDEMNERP

MED14 = MED14 (human, UniProt O60244 1-1454)
MED17 = molecular target: T5, MED17 (human, UniProt Q9NVC6 1-651)
T5 sequence: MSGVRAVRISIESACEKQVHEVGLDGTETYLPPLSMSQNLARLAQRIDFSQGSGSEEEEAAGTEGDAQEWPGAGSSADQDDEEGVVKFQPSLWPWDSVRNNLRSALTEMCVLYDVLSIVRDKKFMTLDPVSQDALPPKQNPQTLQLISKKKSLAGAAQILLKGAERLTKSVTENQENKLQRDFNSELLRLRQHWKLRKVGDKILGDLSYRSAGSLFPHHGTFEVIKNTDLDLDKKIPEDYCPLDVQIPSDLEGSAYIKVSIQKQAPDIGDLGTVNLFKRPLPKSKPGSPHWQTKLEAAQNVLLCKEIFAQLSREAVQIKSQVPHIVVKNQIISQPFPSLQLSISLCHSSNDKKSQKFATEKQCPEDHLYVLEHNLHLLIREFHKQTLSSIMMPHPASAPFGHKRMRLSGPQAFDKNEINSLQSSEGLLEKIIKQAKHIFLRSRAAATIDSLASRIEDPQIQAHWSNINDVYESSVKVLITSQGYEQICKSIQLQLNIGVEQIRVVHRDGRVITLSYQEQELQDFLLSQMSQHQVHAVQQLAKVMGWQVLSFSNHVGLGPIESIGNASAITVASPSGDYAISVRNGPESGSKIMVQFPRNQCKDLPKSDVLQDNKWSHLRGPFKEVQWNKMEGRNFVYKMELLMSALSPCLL

TFIIB = molecular target: T6, TFIIB (human, UniProt Q00403 1-316)
T6 sequence: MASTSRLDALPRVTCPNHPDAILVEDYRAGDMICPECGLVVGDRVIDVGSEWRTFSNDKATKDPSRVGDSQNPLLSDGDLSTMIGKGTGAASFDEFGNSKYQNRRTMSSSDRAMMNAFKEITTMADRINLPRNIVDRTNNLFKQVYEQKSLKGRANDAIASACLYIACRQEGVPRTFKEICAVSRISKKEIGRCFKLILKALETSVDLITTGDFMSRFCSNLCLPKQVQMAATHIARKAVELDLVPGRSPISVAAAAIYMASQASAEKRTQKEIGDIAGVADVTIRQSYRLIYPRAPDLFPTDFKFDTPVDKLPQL

MED20 = molecular target: B3

MED14, sequence (O60244 whole entry): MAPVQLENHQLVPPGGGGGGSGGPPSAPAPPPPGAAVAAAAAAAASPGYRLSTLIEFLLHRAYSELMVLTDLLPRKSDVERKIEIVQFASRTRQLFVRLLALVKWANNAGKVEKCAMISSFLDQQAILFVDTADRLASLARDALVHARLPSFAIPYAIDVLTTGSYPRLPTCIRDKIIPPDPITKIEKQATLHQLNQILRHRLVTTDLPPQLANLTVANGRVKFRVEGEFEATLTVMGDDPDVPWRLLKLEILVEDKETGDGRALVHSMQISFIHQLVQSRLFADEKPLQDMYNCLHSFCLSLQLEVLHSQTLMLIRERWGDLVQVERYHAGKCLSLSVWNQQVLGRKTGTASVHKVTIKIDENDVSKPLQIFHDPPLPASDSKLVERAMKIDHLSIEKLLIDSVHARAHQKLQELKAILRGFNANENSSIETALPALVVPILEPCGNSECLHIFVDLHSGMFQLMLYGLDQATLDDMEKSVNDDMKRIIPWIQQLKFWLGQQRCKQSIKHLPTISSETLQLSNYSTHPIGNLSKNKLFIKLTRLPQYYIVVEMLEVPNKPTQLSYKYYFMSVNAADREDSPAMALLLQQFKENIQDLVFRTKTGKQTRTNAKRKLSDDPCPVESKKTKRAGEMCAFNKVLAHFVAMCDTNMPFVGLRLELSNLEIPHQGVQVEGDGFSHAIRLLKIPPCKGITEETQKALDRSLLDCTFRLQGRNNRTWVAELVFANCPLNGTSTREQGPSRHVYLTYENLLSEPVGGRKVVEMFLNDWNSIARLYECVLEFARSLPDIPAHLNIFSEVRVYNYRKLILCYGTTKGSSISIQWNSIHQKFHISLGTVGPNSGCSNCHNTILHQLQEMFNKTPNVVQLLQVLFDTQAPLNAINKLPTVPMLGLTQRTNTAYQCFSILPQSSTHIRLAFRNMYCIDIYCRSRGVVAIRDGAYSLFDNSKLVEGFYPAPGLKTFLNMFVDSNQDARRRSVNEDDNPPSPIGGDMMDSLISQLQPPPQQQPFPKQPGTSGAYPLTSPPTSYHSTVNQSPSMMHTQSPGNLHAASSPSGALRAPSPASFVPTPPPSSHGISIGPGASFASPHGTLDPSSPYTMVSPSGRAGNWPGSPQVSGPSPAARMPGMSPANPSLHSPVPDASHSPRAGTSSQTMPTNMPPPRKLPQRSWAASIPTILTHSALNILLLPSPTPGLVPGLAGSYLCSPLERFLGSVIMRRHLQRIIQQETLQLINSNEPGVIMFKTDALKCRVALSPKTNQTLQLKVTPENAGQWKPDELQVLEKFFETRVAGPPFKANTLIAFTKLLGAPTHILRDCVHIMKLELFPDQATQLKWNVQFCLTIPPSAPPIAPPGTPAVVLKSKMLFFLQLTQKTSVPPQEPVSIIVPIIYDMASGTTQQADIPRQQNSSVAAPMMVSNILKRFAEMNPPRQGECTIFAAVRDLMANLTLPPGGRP

binding result (MED30): binds | binding result (MED28): binds
B2: MED11 (natural protein)
chain: MATYSLANERLRALEDIEREIGAILQNAGTVILELSKEKTNERLLDRQAAAFTASVQHVEAELSAQIRYLTQVATGQPHEGSSYSSRKDCQMALKRVDYARLKLSDVARTCEQMLEN

binding result (MED4): binds | binding result (MED7): binds | binding result (MED14): binds
B4: MED31 (natural protein)
chain: MAAAVAMETDDAGNRLRFQLELEFVQCLANPNYLNFLAQRGYFKDKAFVNYLKYLLYWKDPEYAKYLKYPQCLHMLELLQYEHFRKELVNAQCAKFIDEQQILHWQHYSRKRMRLQQALAEQQQQNNTSGK

binding result (TFIIB): binds | binding result (MED20): binds | binding result (MED8): binds
B6: MED18 (natural protein)
chain: MEAPPVTMMPVTGGTINMMEYLLQGSVLDHSLESLIHRLRGLCDNMEPETFLDHEMVFLLKGQQASPFVLRARRSMDRAGAPWHLRYLGQPEMGDKNRHALVRNCVDIATSENLTDFLMEMGFRMDHEFVAKGHLFRKGIMKIMVYKIFRILVPGNTDSTEALSLSYLVELSVVAPAGQDMVSDDMKNFAEQLKPLVHLEKIDPKRLM

Further lines, the binder ahead of its results:

B1: MED6 (natural protein)
chain: MAAVDIRDNLLGISWVDSSWIPILNSGSVLDYFSERSNPFYDRTCNNEVVKMQRLTLEHLNQMVGIEYILLHAQEPILFIIRKQQRQSPAQVIPLADYYIIAGVIYQAPDLGSVINSRVLTAVHGIQSAFDEAMSYCRYHPSKGYWWHFKDHEEQDKVRPKAKRKEEPSSIFQRQRVDALLLDLRQKFPPKFVQLKPGEKPVPVDQTKKEAEPIPETVKPEEKETTKNVQQTVSAKGPPEKRMRLQ
binding result (MED8): binds

Binder: B3
binding result (MED27): binds | binding result (MED8): binds

Binder: B5
binding result (MED14): binds | binding result (MED17): binds

Binder: B7
binding result (MED30): binds
